Where a chain is given by its changes, count along the chain named.
B1: SRP2900-E04 (antibody, IgG1, V domains shown)
VH: EVQLVESGGGLVQPGGSLRLSCAASGFTIPDYWIHWVRQAPGKGLEWVGYIDPYSGSTFYADSVKGRFTISADTSKNTAYLQMNSLRAEDTAVYYCARADYYYVDEYLDYWGQGTLVTVSS
VL: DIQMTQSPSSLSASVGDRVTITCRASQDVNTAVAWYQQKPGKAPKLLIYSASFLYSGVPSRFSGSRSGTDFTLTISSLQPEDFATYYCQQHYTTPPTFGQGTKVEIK
B2: SRP2900-A04 (antibody, IgG1, V domains shown)
VH: B1 VH with P30S, D31G, S55N, S57A, F59Y, T78A, Y102F, V104I, L108W
VL: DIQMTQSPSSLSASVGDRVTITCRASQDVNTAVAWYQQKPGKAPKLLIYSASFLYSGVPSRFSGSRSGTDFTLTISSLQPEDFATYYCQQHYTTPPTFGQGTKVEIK
B3: SRP2900-A03 (antibody, IgG1, V domains shown)
VH: B1 VH with D31S, Y54A, S55N, S57A, F59Y, Y102F
VL: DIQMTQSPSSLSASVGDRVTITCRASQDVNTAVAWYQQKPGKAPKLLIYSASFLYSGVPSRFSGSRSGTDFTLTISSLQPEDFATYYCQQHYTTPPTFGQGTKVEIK
B4: SRP2900-A06 (antibody, IgG1, V domains shown)
VH: B1 VH with P30S, D31S, Y54F, S55N, S57A, F59Y, L108W
VL: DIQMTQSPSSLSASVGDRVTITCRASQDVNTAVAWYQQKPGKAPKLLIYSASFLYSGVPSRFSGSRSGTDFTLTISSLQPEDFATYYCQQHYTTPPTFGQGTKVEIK
B5: SRP2900-A07 (antibody, IgG1, V domains shown)
VH: B1 VH with P30S, D31S, S55N, S57A, F59Y, A99S, Y107F, L108F
VL: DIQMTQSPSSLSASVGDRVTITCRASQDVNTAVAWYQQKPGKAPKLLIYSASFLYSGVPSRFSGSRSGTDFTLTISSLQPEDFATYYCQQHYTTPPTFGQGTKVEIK
B6: SRP2900-E11 (antibody, IgG1, V domains shown)
VH: EVQLVESGGGLVQPGGSLRLSCAASGFTISYYIIHWVRQAPGKGLEWVGYIDPSNGYTYYADSVKGRFTISADTSKNTAYLQMNSLRAEDTAVYYCARDVQSVSGEFDYWGQGTLVTVSS
VL: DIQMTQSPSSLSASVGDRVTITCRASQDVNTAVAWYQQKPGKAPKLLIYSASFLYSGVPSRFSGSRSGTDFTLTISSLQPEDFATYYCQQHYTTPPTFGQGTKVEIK
B7: SRP2900-H04 (antibody, IgG1, V domains shown)
VH: B6 VH with Y31H, V100I
VL: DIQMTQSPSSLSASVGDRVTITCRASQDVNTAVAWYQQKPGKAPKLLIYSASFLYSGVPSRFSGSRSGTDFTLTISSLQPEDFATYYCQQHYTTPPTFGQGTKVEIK
B8: SRP2900-F07 (antibody, IgG1, V domains shown)
VH: B6 VH with Y31D, I33T, Y60H, V100P, G105S, E106P
VL: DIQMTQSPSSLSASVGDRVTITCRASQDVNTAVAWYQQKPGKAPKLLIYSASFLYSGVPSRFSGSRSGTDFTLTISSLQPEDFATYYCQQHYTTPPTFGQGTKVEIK
B9: SRP2900-G10 (antibody, IgG1, V domains shown)
VH: B6 VH with S30P, Y31D, V100I
VL: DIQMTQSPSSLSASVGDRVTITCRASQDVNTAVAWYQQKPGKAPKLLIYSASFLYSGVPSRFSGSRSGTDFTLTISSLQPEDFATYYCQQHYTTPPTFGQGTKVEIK
B10: SRP2900-G04 (antibody, IgG1, V domains shown)
VH: B6 VH with I29T, S30R, Y31D, I33V, V100P, V103L, G105S, E106P
VL: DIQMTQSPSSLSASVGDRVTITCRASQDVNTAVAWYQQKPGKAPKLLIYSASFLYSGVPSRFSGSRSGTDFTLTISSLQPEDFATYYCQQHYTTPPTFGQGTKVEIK
B11: SRP2900-H02 (antibody, IgG1, V domains shown)
VH: B6 VH with S30F, Y31D, V100I
VL: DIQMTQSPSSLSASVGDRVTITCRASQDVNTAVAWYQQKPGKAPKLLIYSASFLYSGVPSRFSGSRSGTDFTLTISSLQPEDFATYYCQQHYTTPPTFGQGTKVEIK
B12: SRP2900-G01 (antibody, IgG1, V domains shown)
VH: B6 VH with S30F, Y31D, I33T, Y59F, M83V, V100I
VL: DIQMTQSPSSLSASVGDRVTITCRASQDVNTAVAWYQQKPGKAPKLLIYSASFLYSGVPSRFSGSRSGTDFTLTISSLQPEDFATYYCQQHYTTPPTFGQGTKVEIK
B13: SRP2900-H08 (antibody, IgG1, V domains shown)
VH: B6 VH with Y31D, I33V, Y59F, S75P, E89K, V100P, V103L, G105S, E106P
VL: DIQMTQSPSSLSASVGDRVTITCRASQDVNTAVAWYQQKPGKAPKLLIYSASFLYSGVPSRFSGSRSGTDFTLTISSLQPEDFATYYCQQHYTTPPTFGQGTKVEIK
B14: SRP2900-H01 (antibody, IgG1, V domains shown)
VH: B6 VH with S30F, Y31D, V100P, S104G, G105S
VL: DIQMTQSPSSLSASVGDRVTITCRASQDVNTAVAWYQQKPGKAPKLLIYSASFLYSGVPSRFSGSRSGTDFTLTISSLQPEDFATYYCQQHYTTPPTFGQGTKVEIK
B15: SRP2900-G08 (antibody, IgG1, V domains shown)
VH: B6 VH with P14L, S30G, Y31G, V100I
VL: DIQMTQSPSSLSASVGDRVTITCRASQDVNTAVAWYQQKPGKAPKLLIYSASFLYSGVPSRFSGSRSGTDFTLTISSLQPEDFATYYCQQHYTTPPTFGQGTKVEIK
B16: SRP2900-H03 (antibody, IgG1, V domains shown)
VH: B6 VH with S30Y, Y31D, Y60H, V100P, V103L, G105S, E106P
VL: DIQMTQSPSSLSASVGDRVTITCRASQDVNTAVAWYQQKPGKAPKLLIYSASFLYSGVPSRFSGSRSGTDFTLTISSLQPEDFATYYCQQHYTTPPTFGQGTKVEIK
B17: SRP2900-H10 (antibody, IgG1, V domains shown)
VH: B6 VH with Y31D, I33V, Y57F, M83T, V100I
VL: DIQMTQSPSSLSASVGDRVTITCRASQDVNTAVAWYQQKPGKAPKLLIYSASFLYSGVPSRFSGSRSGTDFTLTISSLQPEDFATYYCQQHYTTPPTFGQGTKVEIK
B18: SRP2900-G11 (antibody, IgG1, V domains shown)
VH: B6 VH with L18S, S30Y, Y31D, Y59D, V100I
VL: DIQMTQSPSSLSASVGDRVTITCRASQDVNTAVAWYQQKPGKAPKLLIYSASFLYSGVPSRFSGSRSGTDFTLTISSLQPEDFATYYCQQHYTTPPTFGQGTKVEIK
B19: SRP2900-E03 (antibody, IgG1, V domains shown)
VH: EVQLVESGGGLVQPGGSLRLSCAASGFTISDYWIHWVRQAPGKGLEWVGYIDPQNGWTYYADSVKGRFTISADTSKNTAYLQMNSLRAEDTAVYYCARDYGSLEVSLDYWGQGTLVTVSS
VL: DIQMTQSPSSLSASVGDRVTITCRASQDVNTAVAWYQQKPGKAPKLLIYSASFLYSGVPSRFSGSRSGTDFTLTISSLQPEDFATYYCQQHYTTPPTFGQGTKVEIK
B20: SRP2900-G07 (antibody, IgG1, V domains shown)
VH: B6 VH with Y31D, I33V, V100P, V103L, S104T, G105S, E106P
VL: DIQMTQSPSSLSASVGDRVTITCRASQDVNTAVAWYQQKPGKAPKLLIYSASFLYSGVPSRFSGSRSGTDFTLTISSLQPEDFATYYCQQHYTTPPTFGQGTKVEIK
B21: SRP2900-E05 (antibody, IgG1, V domains shown)
VH: B19 VH with D31G, Q54A, W57F, L103V, E104R, S106F
VL: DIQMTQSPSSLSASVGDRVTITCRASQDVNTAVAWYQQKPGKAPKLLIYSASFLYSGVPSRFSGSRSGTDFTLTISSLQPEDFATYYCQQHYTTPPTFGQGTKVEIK
B22: SRP2900-F04 (antibody, IgG1, V domains shown)
VH: B19 VH with Q54Y, W57F, E104Q, S106F, L107I
VL: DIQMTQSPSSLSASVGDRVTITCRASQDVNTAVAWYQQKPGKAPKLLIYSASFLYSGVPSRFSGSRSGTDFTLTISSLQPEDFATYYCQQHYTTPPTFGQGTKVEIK
B23: SRP2900-E09 (antibody, IgG1, V domains shown)
VH: B19 VH with D31Q, Q54Y, W57Y, Y80H, L103F, E104R, S106Q
VL: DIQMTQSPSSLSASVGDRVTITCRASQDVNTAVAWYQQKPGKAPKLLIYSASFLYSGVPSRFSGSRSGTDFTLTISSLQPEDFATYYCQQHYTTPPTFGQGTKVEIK
B24: SRP2900-H05 (antibody, IgG1, V domains shown)
VH: B6 VH with Y31D, I33T, V100I
VL: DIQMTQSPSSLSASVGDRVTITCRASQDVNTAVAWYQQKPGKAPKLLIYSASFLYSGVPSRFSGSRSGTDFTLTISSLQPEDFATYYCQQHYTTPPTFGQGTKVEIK
B25: SRP2900-E08 (antibody, IgG1, V domains shown)
VH: B19 VH with S30T, Q54Y, W57Y, E104Q, S106F, L107I
VL: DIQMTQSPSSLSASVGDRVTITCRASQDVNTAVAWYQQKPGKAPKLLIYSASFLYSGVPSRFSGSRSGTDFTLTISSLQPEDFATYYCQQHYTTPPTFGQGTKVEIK
B26: SRP2900-F05 (antibody, IgG1, V domains shown)
VH: B6 VH with S30N, Y31D, I33V, V100D, V103L, G105S, E106P
VL: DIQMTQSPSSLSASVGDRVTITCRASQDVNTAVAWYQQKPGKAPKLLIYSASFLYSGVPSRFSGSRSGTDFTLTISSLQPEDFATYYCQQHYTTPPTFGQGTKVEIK
B27: SRP2900-E10 (antibody, IgG1, V domains shown)
VH: B19 VH with Q54A, W57Y, E104H, S106Q
VL: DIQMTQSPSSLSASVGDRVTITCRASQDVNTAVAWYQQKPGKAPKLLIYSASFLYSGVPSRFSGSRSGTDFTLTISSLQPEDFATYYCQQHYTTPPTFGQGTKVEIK
B28: SRP2900-G09 (antibody, IgG1, V domains shown)
VH: B6 VH with Y31D, V100P, V103L, S104T, G105S, E106P
VL: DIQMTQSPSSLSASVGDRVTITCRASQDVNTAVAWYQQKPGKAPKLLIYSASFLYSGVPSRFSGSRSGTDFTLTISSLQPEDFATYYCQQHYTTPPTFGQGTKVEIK
B29: SRP2900-G06 (antibody, IgG1, V domains shown)
VH: B6 VH with Y31D, V100D, V103L, G105S, E106P
VL: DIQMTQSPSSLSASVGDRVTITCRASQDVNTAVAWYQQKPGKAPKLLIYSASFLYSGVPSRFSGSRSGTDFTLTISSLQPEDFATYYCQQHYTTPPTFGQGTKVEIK
B30: SRP2900-F10 (antibody, IgG1, V domains shown)
VH: B6 VH with Y31D, I33V, V100P, V103L, S104F, G105Y, E106P
VL: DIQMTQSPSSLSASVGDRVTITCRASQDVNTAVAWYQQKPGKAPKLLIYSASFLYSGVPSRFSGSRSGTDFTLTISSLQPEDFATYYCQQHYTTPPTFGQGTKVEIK

What follows are binders tested against tissue factor reagent of the Tissue Factor Activity Assay Kit (Abcam #ab108906) (UniProt P13726 33-295, limits assumed) (assay: cell-based or functional assay).
Chain of tissue factor reagent of the Tissue Factor Activity Assay Kit (Abcam #ab108906) (P13726 33-295 limits assumed): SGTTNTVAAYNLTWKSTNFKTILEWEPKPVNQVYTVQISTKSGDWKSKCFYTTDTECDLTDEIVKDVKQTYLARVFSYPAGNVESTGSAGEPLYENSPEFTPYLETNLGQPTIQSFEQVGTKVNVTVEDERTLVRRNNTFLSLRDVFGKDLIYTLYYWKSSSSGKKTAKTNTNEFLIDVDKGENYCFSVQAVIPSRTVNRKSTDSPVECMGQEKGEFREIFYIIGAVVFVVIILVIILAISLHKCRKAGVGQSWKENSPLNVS

Binder	FX conversion (% inhibition), 1000 nM antibody [%]
B1	25.9
B2	38.6
B3	26.3
B4	36.8
B5	28.4
B6	39.9
B7	36.3
B8	30.3
B9	48.7
B10	31.2
B11	40.4
B12	25.1
B13	32.2
B14	30.5
B15	38.9
B16	40.8
B17	45.4
B18	40.9
B19	48.7
B20	38.3
B21	23.5
B22	47.3
B23	32.2
B24	36.2
B25	45.8
B26	25.1
B27	50.7
B28	30.4
B29	21.4
B30	32.5

From patent US20250122306A1 (SUTRO BIOPHARMA, published 2025)
